Data from US20240181125A1 (published 2024).
Primed or numbered codes have the meaning given here. Ends that are not written are not given here. FITC′ = not defined here

B1: PTβR2I (peptide)
peptide: ECGLLPVGRPDRVWRLCK-{FITC′}
modifications: cysteine pairing not given here
B2: peptide-based TGFβ receptor II inhibitor (PTβR2I), ECGLLPVGRPDRVWRLCK-FITC (peptide)
peptide: ECGLLPVGRPDRVWRLCK-{FITC′}
modifications: cysteine pairing not given here

Key:
Assay in all cases: ELISA-like binding assay
[1] = target: TβR3
[2] = target: IgG
[3] = target: T1, TGFβ receptor I (TβR1), R&D, coated on ELISA plate
T1 chain: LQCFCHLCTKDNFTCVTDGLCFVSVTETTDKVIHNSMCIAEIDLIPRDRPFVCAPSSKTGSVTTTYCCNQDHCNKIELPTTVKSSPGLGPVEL

Row | Binder | Kd [1] [µM] | Kd [2] [µM] | Kd [3] [µM]
1 | B1 | 41.1 | 83 | 
2 | B2 |  |  | 35.2
